We go through 2 molecules from patent US20170320956A1 (KYMAB, published 2017).

The target of assay [1] is T1, recombinant human LIGHT-214E, FLAG-tagged extracellular domain (human).
T1 chain: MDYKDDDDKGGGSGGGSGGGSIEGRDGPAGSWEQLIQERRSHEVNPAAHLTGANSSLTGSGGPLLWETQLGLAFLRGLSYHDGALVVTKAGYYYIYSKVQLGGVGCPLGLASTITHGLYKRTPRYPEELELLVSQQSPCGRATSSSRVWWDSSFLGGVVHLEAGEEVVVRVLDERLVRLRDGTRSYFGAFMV
In words: cell-based or functional assay.

Assay [2] deals with T2, mouse LIGHT (mouse, UniProt Q9QYH9 72-239, limits assumed).
T2 construct: also called murine LIGHT
T2 sequence (looked up): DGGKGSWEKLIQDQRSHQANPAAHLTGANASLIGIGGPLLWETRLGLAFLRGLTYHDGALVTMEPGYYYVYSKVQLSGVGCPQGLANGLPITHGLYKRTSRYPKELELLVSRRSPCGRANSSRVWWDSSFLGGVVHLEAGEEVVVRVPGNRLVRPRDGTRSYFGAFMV
Nature of the assay: SPR ProteOn, mAb captured on anti-mouse IgG.

Assay [3] deals with human LIGHT-214E, full length, expressed on the surface of CHO-S cells (human, UniProt O43557 1-240). In words: flow cytometry, CHO-S cells expressing hLIGHT-214E.
Assay [4] addresses T1, recombinant human LIGHT-214E, …. In words: HTRF competition, HVEM-Fc binding to Flag-hLIGHT-214E. The protocol: (§1) The following methods were carried out with a titration of inhibitor in order to establish the clone potency as measured by IC50 values in the assay. 5 μl of Flag-tagged hLIGHT (in-house) diluted to 2.5 nM final concentration (10 nM working concentration) in HTRF buffer with 5 μl of a titration of antibody purified from hybridoma supernatant diluted in HTRF assay buffer from 300 nM final (1200 nM working concentration) was pre-incubated for 1 hour at room temperature. To wells used to define total binding, 5 μl of LIGHT (10 nM working, 2.5 nM final) and 5 μl of hybridoma maintaining media (HMM,)) were added. To wells used to define non specific binding (receptor only) 10 μl of HMM was added. Total and non specific binding wells were pre-incubated for 1 hr at RT in the same plate as wells containing titration of inhibitor.
(§2) LIGHT receptor was diluted in HTRF assay buffer and added to all wells, 5 μl/well of HVEM-Fc or LTβR-Fc (R&D systems) at 1.2 nM for HVEM (0.3 nM final) and 0.4 nM for LTβR (0.1 nM final).

Assay [5] has the same target. Nature of the assay: HTRF competition, LTβR-Fc binding to Flag-hLIGHT-214E. The protocol: as §1, §2
For assay [6], the target named is T3, recombinant human LIGHT-214K, FLAG-tagged extracellular domain (human).
T3 construct: the IgK leader peptide is marked only by underlining (not visible here), so its residues were not removed; Trimer
T3 chain: T1 chain with E166K
In words: SPR ProteOn, mAb captured on anti-mouse IgG, LIGHT 256 nM, 25 C. The protocol:
(§3) SPR analysis was carried out using the ProteOn™ XPR36 Array System (BioRad). Anti-mouse IgG (GE Healthcare BR-1008-38) was immobilised on a GLC biosensor surface using amine coupling, the surface was then blocked using 1M ethanolamine. […] Apparent affinities for the LIGHT-antibody interaction were determined using the 1:1 model inherent to the ProteOn XPR36 analysis software. The assay was run using HBS-EP (Teknova) as running buffer and carried out at 25° C.

For assay [7], the target named is T1, recombinant human LIGHT-214E, …. Nature of the assay: SPR ProteOn, mAb captured on anti-mouse IgG, LIGHT 256 nM, 25 C, apparent affinity. The method, then: as §3
The target of assay [8] is T4, recombinant cynomolgus monkey LIGHT, FLAG-tagged extracellular domain (cynomolgus (Macaca fascicularis), UniProt E9NVF7 59-240).
T4 construct: extracellular domain; also called cynomolgus LIGHT; cyno LIGHT
Described as above. The method, then:
as §3

Assay [9] has as its target T3, recombinant human LIGHT-214K, …. Nature of the assay: SPR cross-binding study, IgG4(PE) format; column hLIGHT 214K Binder. The method, then:
All antibodies tested in the competition SPR were in human IgG4(PE) format (see Example 5 for re-formatting methods). To investigate antibodies that may share the same binding region on LIGHT, an SPR based assay was carried out on the ProteOn™ XPR36 Array System. […] The anti-human IgG surface was used as a capture surface to capture test antibodies as “ligands” for analysis. Using the ProteOn™ XPR36 Array System ability to address the capture surface in either the vertical or horizontal orientation the assay was carried out as follows. The “Ligand” antibodies were captured in the vertical orientation, and then a 1 in 1000 dilution of mouse serum was used to block the capture surface in the horizontal orientation. LIGHT was then passed over the capture surface in the horizontal orientation and bound to the captured ligand antibody, after which the same ligand antibody was passed over the “antibody-LIGHT” complex, (LIGHT is a trimer, so this ensures all available LIGHT molecules are bound to by the Ligand antibody), again the second application of the ligand antibody was in the vertical orientation. […] Binding/no-binding is determined by monitoring the sensorgrams, which were double referenced using a non-LIGHT binding antibody as a control sample and was included with every set of ligand antibodies run. […]

Changes are numbered by the printed parent chain.

B1: 117C06 (purified from hybridoma supernatant) (antibody, V domains shown)
VH: QVQLVQSGAEVKKPGASVKVSCKASGYTFVNFGISWVRQAPGQGLEWMGWISVYSGNTNYAQKLQGRVTLTTDTSTTTAYMELRSLRSDDTAVYYCARHNWNDYWGQGTLVTVSS
VL: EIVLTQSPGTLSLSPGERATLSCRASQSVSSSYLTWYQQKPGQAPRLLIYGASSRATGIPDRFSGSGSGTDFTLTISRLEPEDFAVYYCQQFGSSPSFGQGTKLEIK
notes: Murine constant / human variable chimeric IgG, kappa, Protein G purified from hybridoma supernatant
B1: in assay [1], the “HT29 IL-8 release, IC50” value amounted to 1.42 nM. Besides, the binding result in assay [2] was “no binding”; in assay [3], “binds”; in [6] it was “no binding (tested: 256 nM)”. Also, the IC50 in assay [4] was determined as 1.28 nM; in assay [5], 2.53 nM. For the same molecule, the results for the Kd in [7] and in [8] were 1.03 nM and 2.82 nM, respectively.

B2: 117C06 in human IgG4(PE) format (antibody, V domains shown)
VH: B1 VH
VL: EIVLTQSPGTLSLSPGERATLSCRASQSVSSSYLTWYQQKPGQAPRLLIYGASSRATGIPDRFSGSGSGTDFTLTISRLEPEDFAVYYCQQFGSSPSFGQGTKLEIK
As for B2, in assay [9], the binding result is listed as “no binding”.
